Like-named read-outs stand apart in the source and are kept apart here. Bounds are passed on as bounds.

Assay [1] concerns the target HIV-1 clade C 16055 gp120-Histag, EF117268_gp120 (HIV-1 clade C, isolate 16055). The assay is described as follows: Octet. A general note: In BLI a coated tip is dipped into the sample, and binding shifts an interference pattern.
Assay [2] shares this target. In words: Octet (biolayer interferometry).
Assay [3] addresses 0013095 (EF117267) (HIV-1).
Assay [4] concerns the target 25710 (EF117271) (HIV-1).
For assay [5], the target named is 25925 (EF117273) (HIV-1).
Assay [6] addresses 6535 (AY835438) (HIV-1).
Assay [7] concerns the target AC10 (HIV-1).
The target in assay [8] is Bal (HIV-1).
The target in assay [9] is CAAN (AY835452) (HIV-1).
The target in assay [10] is CAP45 (HIV-1).
Assay [11] deals with DU422 (HIV-1).
Assay [12] deals with Du172 (HIV-1).
Assay [13] has as its target Env of the 16055 virus (HIV-1 clade C, isolate 16055).
In assay [14] the target is HIV-1 Env 16936 (HIV-1, isolate 16936).
The target of assay [15] is JRCSF.
Assay [16] addresses JRFL (HIV-1).
Assay [17] has as its target PVO (HIV-1).
Assay [18] concerns the target QH0692 (HIV-1).
In assay [19] the target is SF162 (HIV-1).
Assay [20] deals with YU2.
The target of assay [21] is ZM214 (HIV-1).
Assay [22] has as its target Zm109F (AY424138) (HIV-1).
Assay [23] has as its target Zm135 (HIV-1).
In assay [24] the target is Zm197 (HIV-1).
Assay [25] addresses CAP45 (HIV-1). The source holds these as a separate data set.
Assay [26] has as its target DU422 (HIV-1). This is another data set of the same source.
The target in assay [27] is Du172 (HIV-1). This is another data set of the same source.
Assay [28] deals with Env of the 16055 virus (HIV-1 clade C, isolate 16055). The source holds these as a separate data set.
For assay [29], the target named is JRCSF. This is another data set of the same source.
Assay [30] deals with MulV.
The target of assay [31] is Q842 (HIV-1).
Assay [32] addresses REJ0451 (HIV-1).
Assay [33] addresses RW020 (HIV-1).
The target in assay [34] is UG037 (HIV-1).
Assay [35] addresses WIT04160 (HIV-1).
The target in assay [36] is YU2. This is another data set of the same source.
In assay [37] the target is Zm135 (HIV-1). This is another data set of the same source.
For assay [38], the target named is Zm197 (HIV-1). The source holds these as a separate data set.
Assay [39] has as its target 16936V1-3-55 gp160 full length Env (HIV-1 (16936 with 16055 V1-3 loops)).
Assay [40] has as its target HIV-1 Env 16936 (HIV-1, isolate 16936). This is another data set of the same source.
For assay [41], the target named is 16936-16055V123loop (HIV-1 (16936 backbone with 16055 V1, V2 and V3 loops)). In words: ELISA. A general note: In an ELISA, binding on a coated surface is turned into a signal by an enzyme label.
Assay [42] addresses BG505_gp120 (HIV-1 clade A, BG505). In words: ELISA on BG505 gp120.
Assay [43] concerns the target Env of the 16055 virus (HIV-1 clade C, isolate 16055). In words: shed gp120 capture ELISA.
In assay [44] the target is JRCSF. The assay is described as follows: shed gp120 capture ELISA.
For assay [45], the target named is 0013095 gp140. The assay is described as follows: ELISA on recombinant gp140.
The target of assay [46] is HIV-1 clade C 16055 gp140-Histag, EF117268_gp140 (HIV-1 clade C, isolate 16055). The assay is described as follows: ELISA on recombinant gp140.
In assay [47] the target is 16055 gp140 trimer with c-terminus trimerization domain GCN4 (HIV-1 clade C, isolate 16055). The assay is described as follows: ELISA on recombinant gp140.
Assay [48] deals with HIV-1 clade C 16055 gp140-Histag, EF117268_gp140 (HIV-1 clade C, isolate 16055). In words: ELISA on recombinant gp140. The source holds these as a separate data set.
The target in assay [49] is Env of the 16055 virus (HIV-1 clade C, isolate 16055). The assay is described as follows: ELISA; same curves as panel 16055-2 of FIG. 3A.
Assay [50] has the same target. The source holds these as a separate data set.
Assay [51] has as its target JRFL (HIV-1). The source holds these as a separate data set.
Assay [52] concerns the target QH0692 (HIV-1). The source holds these as a separate data set.
Assay [53] has as its target SF162 (HIV-1). This is another data set of the same source.
In assay [54] the target is ZM214 (HIV-1). The source holds these as a separate data set.

Consider A32 (antibody), for which, in assay [1], the Kd (usually the free concentration of one partner at which half of the binding sites on the other are occupied at equilibrium, for simple one-to-one binding) turned out to be 5.2 nM; the koff (commonly the rate constant with which the complex falls apart) is 8.23e-05 s⁻¹; the kon (in general, a measure of how fast the partners come together) was 15600 M⁻¹ s⁻¹.

In [1], VRC01 (antibody) registered a koff of 0.000294 s⁻¹ and a kon of 4780 M⁻¹ s⁻¹. The substance further registered a Kd in [2] of 61 nM.

Take PG9 (antibody): the neutralization IC50 in assay [3] is less than 0.01 µg/mL; in assay [4] it was less than 0.01 µg/mL; in assay [5] it was 0.15 µg/mL; in assay [6], 0.6 µg/mL; in assay [7], 0.05 µg/mL; in assay [8] it was less than 0.01 µg/mL. For the same substance, the neutralization IC50 was 11.9 µg/mL in assay [9]; less than 0.01 µg/mL in [10]; 1.64 µg/mL in assay [11]; 0.49 µg/mL in [12]; less than 0.01 µg/mL in [13]; less than 0.01 µg/mL in assay [15]. The neutralization IC50 in assay [16] is more than 25 µg/mL; in assay [17] it was 9.76 µg/mL; in assay [18] it was more than 25 µg/mL; in assay [19], more than 25 µg/mL; in [20], less than 0.01 µg/mL; in [21] it was more than 25 µg/mL. Further, the neutralization IC50 in [22] amounted to 0.46 µg/mL; in assay [23], 17.6 µg/mL; in assay [24] it was 0.61 µg/mL; in assay [25], 0.003 µg/mL; in [26], 0.178 µg/mL; in assay [27] it was 0.24 µg/mL. For the same substance, the neutralization IC50 in assay [28] is 0.01 µg/mL; in assay [29] it was 0.002 µg/mL; in assay [30], more than 25 µg/mL; in assay [31] it was 0.02 µg/mL; in [32] it was 0.001 µg/mL; in assay [33], 0.05 µg/mL. The neutralization IC50 in assay [34] was 0.02 µg/mL; in [35] it was 0.005 µg/mL; in [36], 1.73 µg/mL; in assay [37] it was more than 25 µg/mL; in assay [38] it was 0.287 µg/mL; in assay [39], 0.03 µg/mL. In addition, in [40], the neutralization IC50 is more than 25 µg/mL. This substance returned a neutralization IC50 (virus printed '6936') in assay [14] of more than 25 µg/mL. In addition, the EC50 (read off the curve) (in general, the midpoint of the concentration-response curve) came out at 0.2 µg/mL in assay [41]; 0.04 µg/mL in [42]; 0.3 µg/mL in [43]; 0.3 µg/mL in [44]; 0.9 µg/mL in [45]; 0.1 µg/mL in assay [46]. In addition, the results for the EC50 (read off the curve) in assay [47], in [48] and in [49] were 0.1 µg/mL, 0.2 µg/mL and 0.3 µg/mL, respectively.

With PG16 (antibody), the neutralization IC50 in assay [3] is less than 0.01 µg/mL; in [4], less than 0.01 µg/mL; in assay [5], 0.11 µg/mL; in [6], more than 25 µg/mL; in assay [7], less than 0.01 µg/mL; in assay [8], less than 0.01 µg/mL. Further, the neutralization IC50 in [9] is 12.9 µg/mL; in [10], less than 0.01 µg/mL; in assay [11], 2.34 µg/mL; in assay [12], 0.06 µg/mL; in [15], less than 0.01 µg/mL; in [16], more than 25 µg/mL. The neutralization IC50 in assay [17] was 21.9 µg/mL; in [18], more than 25 µg/mL; in assay [19], more than 25 µg/mL; in assay [20], less than 0.01 µg/mL; in assay [21] it was more than 25 µg/mL; in assay [22] it was more than 25 µg/mL. Also, the neutralization IC50 is more than 25 µg/mL in assay [23]; 1.68 µg/mL in assay [24]; 0.002 µg/mL in assay [25]; 0.042 µg/mL in assay [26]; 0.023 µg/mL in assay [27]; 0.01 µg/mL in [28]. For the same substance, the neutralization IC50 in assay [29] is 0.001 µg/mL; in assay [30], more than 25 µg/mL; in assay [31], 0.009 µg/mL; in assay [32], 0.004 µg/mL; in assay [33], 0.037 µg/mL; in assay [34] it was 0.01 µg/mL. Further, the neutralization IC50 in [35] is 0.002 µg/mL; in assay [36], 0.114 µg/mL; in assay [38], 0.765 µg/mL; in assay [39], 0.06 µg/mL; in assay [50], less than 0.01 µg/mL; in assay [40] it was more than 25 µg/mL. Further, the neutralization IC50 (virus printed '6936') in assay [14] was more than 25 µg/mL. Also, the EC50 (read off the curve) came to 0.2 µg/mL in [42], 0.08 µg/mL in assay [46], 0.08 µg/mL in assay [47] and 0.1 µg/mL in assay [48].

On to b6 (antibody), for which, in [1], the Kd is 7.7 nM, the koff is 8.66e-05 s⁻¹ and the kon was 11000 M⁻¹ s⁻¹.

Regarding F105 (antibody), in assay [1], the koff was 0.00169 s⁻¹ and the kon was determined as 8430 M⁻¹ s⁻¹. This substance gave a Kd in assay [2] of 200 nM.

In the case of b12 (antibody), the neutralization IC50 in assay [25] was 0.37 µg/mL; in assay [26], 0.464 µg/mL; in assay [27], 0.3 µg/mL; in [29], 0.096 µg/mL; in assay [51] it was 0.022 µg/mL; in assay [30], more than 25 µg/mL. In addition, the neutralization IC50 in assay [31] was more than 25 µg/mL; in assay [52] it was 0.97 µg/mL; in assay [32], 5.92 µg/mL; in assay [33] it was 10 µg/mL; in [53], 0.07 µg/mL; in assay [34] it was more than 25 µg/mL. Moreover, the neutralization IC50 in assay [35] was 8.58 µg/mL; in [36], 2.18 µg/mL; in [54], 13.6 µg/mL; in [37], more than 25 µg/mL; in [38], more than 25 µg/mL; in assay [39] it was 20.5 µg/mL. Besides, the neutralization IC50 in assay [50] and in assay [40] was more than 25 µg/mL in each case. For the same substance, in [1], the koff is 0.00107 s⁻¹. This substance gave a kon in [1] of 8790 M⁻¹ s⁻¹. In assay [42], this substance gave an EC50 (read off the curve) of 0.03 µg/mL. In [2], this substance registered a dissociation constant Kd of 120 nM.

For 4E10 (antibody), the neutralization IC50 is 2.68 µg/mL in assay [39], 7.02 µg/mL in assay [50] and 3.85 µg/mL in assay [40].

For the origin of these results see patent publication US8586056.
